# Data from paper PMC11065315.
# pKd: −log10 of the molar value.
# Assays:
# [1] = target: phosphorylated eIFiso4F (wheat eIFiso4Ep and eIFiso4Gp, phosphorylated in vitro by casein kinase 2) (wheat); assay: other fluorescence titration; 25°C; quenching of the intrinsic fluorescence of the eIFs (excitation 280 nm, emission 334 nm) by increasing VPg; 100 nM eIFs or BSA (results; 500 nM in the methods); 20 mM HEPES/KOH pH 7.6, 100 mM NaCl, 1 mM MgCl2, 1 mM DTT; complexes pre-formed for 15 min
# [2] = target: phosphorylated eIFiso4F in complex with eIF4B (wheat) (UniProt Q9AUJ7); assay: as above
# [3] = target: phosphorylated eIFiso4F in complex with eIF4B and poly(A)-binding protein (wheat) (UniProt Q9AUJ7); assay: as above
# [4] = target: phosphorylated eIFiso4F in complex with poly(A)-binding protein (wheat); assay: as above
# [5] = target: phosphorylated eIFiso4F (wheat eIFiso4Ep and eIFiso4Gp, phosphorylated in vitro by casein kinase 2) (wheat); assay: other fluorescence titration; 15°C; quenching of the intrinsic fluorescence of the eIFs by increasing VPg; 20 mM HEPES/KOH pH 7.6, 100 mM NaCl, 1 mM MgCl2, 1 mM DTT
# [6] = target: phosphorylated eIFiso4F in complex with eIF4B (wheat) (UniProt Q9AUJ7); assay: as above
# [7] = target: phosphorylated eIFiso4F in complex with eIF4B and poly(A)-binding protein (wheat) (UniProt Q9AUJ7); assay: as above
# [8] = target: phosphorylated eIFiso4F in complex with poly(A)-binding protein (wheat); assay: as above
# [9] = target: phosphorylated eIFiso4F (wheat eIFiso4Ep and eIFiso4Gp, phosphorylated in vitro by casein kinase 2) (wheat); assay: other fluorescence titration; 20°C; quenching of the intrinsic fluorescence of the eIFs by increasing VPg; 20 mM HEPES/KOH pH 7.6, 100 mM NaCl, 1 mM MgCl2, 1 mM DTT
# [10] = target: phosphorylated eIFiso4F in complex with eIF4B (wheat) (UniProt Q9AUJ7); assay: as above
# [11] = target: phosphorylated eIFiso4F in complex with eIF4B and poly(A)-binding protein (wheat) (UniProt Q9AUJ7); assay: as above
# [12] = target: phosphorylated eIFiso4F in complex with poly(A)-binding protein (wheat); assay: as above
# [13] = target: phosphorylated eIFiso4F (wheat eIFiso4Ep and eIFiso4Gp, phosphorylated in vitro by casein kinase 2) (wheat); assay: other fluorescence titration; 10°C; quenching of the intrinsic fluorescence of the eIFs by increasing VPg; 20 mM HEPES/KOH pH 7.6, 100 mM NaCl, 1 mM MgCl2, 1 mM DTT
# [14] = target: phosphorylated eIFiso4F in complex with eIF4B (wheat) (UniProt Q9AUJ7); assay: as above
# [15] = target: phosphorylated eIFiso4F in complex with eIF4B and poly(A)-binding protein (wheat) (UniProt Q9AUJ7); assay: as above
# [16] = target: phosphorylated eIFiso4F in complex with poly(A)-binding protein (wheat); assay: as above
# [17] = target: eIFiso4F (unphosphorylated; wheat eIFiso4E and eIFiso4G) (wheat)
# [18] = target: phosphorylated eIFiso4F (wheat eIFiso4Ep and eIFiso4Gp, phosphorylated in vitro by casein kinase 2) (wheat); assay: other fluorescence titration; Van't Hoff plot (ln Keq against 1/T) of the fluorescence titrations at 5, 10, 15, 20 and 25°C
# [19] = target: phosphorylated eIFiso4F in complex with eIF4B (wheat) (UniProt Q9AUJ7); assay: as above
# [20] = target: phosphorylated eIFiso4F in complex with eIF4B and poly(A)-binding protein (wheat) (UniProt Q9AUJ7); assay: as above
# [21] = target: phosphorylated eIFiso4F in complex with poly(A)-binding protein (wheat); assay: as above
# [22] = target: phosphorylated eIFiso4F (wheat eIFiso4Ep and eIFiso4Gp, phosphorylated in vitro by casein kinase 2) (wheat)
# [23] = target: phosphorylated eIFiso4F (wheat eIFiso4Ep and eIFiso4Gp, phosphorylated in vitro by casein kinase 2) (wheat); assay: other fluorescence titration; 5°C; quenching of the intrinsic fluorescence of the eIFs by increasing VPg; 20 mM HEPES/KOH pH 7.6, 100 mM NaCl, 1 mM MgCl2, 1 mM DTT
# [24] = target: phosphorylated eIFiso4F in complex with eIF4B (wheat) (UniProt Q9AUJ7); assay: as above
# [25] = target: phosphorylated eIFiso4F in complex with eIF4B and poly(A)-binding protein (wheat) (UniProt Q9AUJ7); assay: as above
# [26] = target: phosphorylated eIFiso4F in complex with poly(A)-binding protein (wheat); assay: as above
substance,measurement,setting,value
viral protein genome-linked (VPg) of turnip mosaic virus (natural protein),pKd,[1],7.39
same,pKd,[2],7.47
same,pKd,[3],7.62
same,pKd,[4],7.49
same,pKd,[5],7.58
same,pKd,[6],7.62
same,pKd,[7],7.79
same,pKd,[8],7.72
same,pKd,[9],7.51
same,pKd,[10],7.53
same,pKd,[11],7.71
same,pKd,[12],7.58
same,pKd,[13],7.68
same,pKd,[14],7.72
same,pKd,[15],7.92
same,pKd,[16],7.85
same,"luciferase translation of uncapped TEV mRNA in eIF4F/eIFiso4F/eIF4B/PABP-depleted WGE with 20 nM VPg, escalating PABP up to 200 nM against no PABP",[17],3 fold
same,dH,[18],-7.98 kcal/mol
same,dH,[19],-8.46 kcal/mol
same,dH,[20],-12.8 kcal/mol
same,dH,[21],-11.7 kcal/mol
same,"luciferase translation of capped TEV-luc-A50 mRNA in depleted WGE supplemented with eIFiso4Fp, with against without 20 nM VPg",[22],2.5 fold
same,"luciferase translation of uncapped TEV-luc-A50 mRNA in depleted WGE supplemented with eIFiso4Fp, with against without 20 nM VPg",[22],5 fold
same,"luciferase translation of uncapped TEV-luc-A50 mRNA in depleted WGE with eIFiso4Fp and VPg, with against without added PABP",[22],2 fold
same,pKd,[23],7.77
same,pKd,[24],7.82
same,pKd,[25],8.07
same,pKd,[26],7.99
